{"source": "the RNAGym collection of RNA variant scans (doi:10.1073/pnas.2313332121)", "parents": {"B1": {"name": "TPR t1 (parent)", "chain": "GACCAAUCUGCCCUCAGAGCUCGAGAACAUCUUCGGAUGCAGAGGAGGCAGGCUUCGGUGGCGCGAUAGCGCCAACGUCCUCAACCUCCAAUGCAUCCCACCACAUGAUGAUGCCUGAAGAGCCUUGGUUUUUUG"}}}
{"variants_of": "B1", "assay": "polymerase ribozyme fitness, log enrichment relative to wild type (log ratio); higher = more active; in vitro selection for triplet polymerase activity", "summary_of_the_method": "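Mutant libraries were PCR-built and transcribed for each subunit of a heterodimeric triplet polymerase ribozyme and selected for one round in triplicate at −7 °C, frozen, before gel excision of extended constructs and streptavidin-bead capture. Input and output libraries were Illumina-sequenced, keeping genotypes with ≥10 input reads and ≥1 read per output. Fitness is a logarithmic ratio of genotype to wild-type enrichment, in base 2, using inverse-variance-weighted replicate averages.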"}
{"variant": "C15G G44C G47A G69U", "polymerase ribozyme fitness (log ratio)": -3.06}
{"variant": "G17A A90C C101A C114G", "polymerase ribozyme fitness (log ratio)": -5.04}
{"variant": "A16U G17A G93A", "polymerase ribozyme fitness (log ratio)": -4.25}
{"variant": "A18C A100C", "polymerase ribozyme fitness (log ratio)": -4.31}
{"variant": "A16G G60U A90U", "polymerase ribozyme fitness (log ratio)": -2.82}
{"variant": "G17U C49U C124G G127C", "polymerase ribozyme fitness (log ratio)": -0.942}
{"variant": "A16U G47C G71U", "polymerase ribozyme fitness (log ratio)": -4.17}
{"variant": "G17C U54G G61A C94A U112G", "polymerase ribozyme fitness (log ratio)": -6.29}
{"variant": "G17C C72U U78G U116A A119C G120A", "polymerase ribozyme fitness (log ratio)": -5.61}
{"variant": "A16U G69U G71U G117C", "polymerase ribozyme fitness (log ratio)": -4.04}
{"variant": "A16C C89U U106A", "polymerase ribozyme fitness (log ratio)": -2.64}
{"variant": "G17A C53U C89U C101A U109G", "polymerase ribozyme fitness (log ratio)": -6.85}
{"variant": "C15G A90C", "polymerase ribozyme fitness (log ratio)": -3.94}
{"variant": "G17A A43U C88A U96A U129A", "polymerase ribozyme fitness (log ratio)": -3.98}
{"variant": "C15G C73A", "polymerase ribozyme fitness (log ratio)": -2.02}
{"variant": "A16U C34A C64A U109G C123A U129G", "polymerase ribozyme fitness (log ratio)": -6.08}
{"variant": "A16C C49U G60U U78A", "polymerase ribozyme fitness (log ratio)": -3.42}
{"variant": "A16U C73U A121C", "polymerase ribozyme fitness (log ratio)": 0.586}
{"variant": "G17A G52C G60C U81C C115G", "polymerase ribozyme fitness (log ratio)": -3.56}
{"variant": "C15U A105U", "polymerase ribozyme fitness (log ratio)": -3.42}
{"variant": "C15U C73U A74C", "polymerase ribozyme fitness (log ratio)": -1.46}
{"variant": "A16C C20U C70U", "polymerase ribozyme fitness (log ratio)": -4.3}
{"variant": "C15U C28A C72U C76G A121C", "polymerase ribozyme fitness (log ratio)": -3.19}
{"variant": "A16U A41G G63U C115U", "polymerase ribozyme fitness (log ratio)": -4.47}
{"variant": "A16G G47A", "polymerase ribozyme fitness (log ratio)": -2.15}
{"variant": "A16C C56G G77U C115G", "polymerase ribozyme fitness (log ratio)": -3.78}
{"variant": "G17U U59C A108G A118U", "polymerase ribozyme fitness (log ratio)": -5.03}
{"variant": "G17U A37U G60A C82U", "polymerase ribozyme fitness (log ratio)": -2.4}
{"variant": "G17U G63C", "polymerase ribozyme fitness (log ratio)": -3.04}
{"variant": "C15U C88U A118G", "polymerase ribozyme fitness (log ratio)": -1.82}
{"variant": "G17A C53A C104U U133A", "polymerase ribozyme fitness (log ratio)": -2.46}
{"variant": "G17A G39U G113C", "polymerase ribozyme fitness (log ratio)": -6.88}
{"variant": "G17U C62G A83U C123G", "polymerase ribozyme fitness (log ratio)": -5.79}
{"variant": "G17A A90C", "polymerase ribozyme fitness (log ratio)": -3.17}
{"variant": "A16G G60A U81A G117U", "polymerase ribozyme fitness (log ratio)": -4.21}
{"variant": "C15U A18U G44U G69U G117C A121C", "polymerase ribozyme fitness (log ratio)": -4.92}
{"variant": "G17A G69A C102U C114G U131G", "polymerase ribozyme fitness (log ratio)": -6.68}
{"variant": "C15U C76U A100U G120C", "polymerase ribozyme fitness (log ratio)": 0.0455}
{"variant": "G17U G47U", "polymerase ribozyme fitness (log ratio)": -5.05}
{"variant": "C15U G58C G120C", "polymerase ribozyme fitness (log ratio)": 0.694}
{"variant": "C15U A46G G69C C86G C124U", "polymerase ribozyme fitness (log ratio)": -3.98}
{"variant": "A16U C124A", "polymerase ribozyme fitness (log ratio)": -0.305}
{"variant": "A16C C123G", "polymerase ribozyme fitness (log ratio)": -0.273}
{"variant": "C15U G122A", "polymerase ribozyme fitness (log ratio)": -1.11}
{"variant": "G17A U78C", "polymerase ribozyme fitness (log ratio)": -3.04}
{"variant": "C15U A24G A41G C73A C115U", "polymerase ribozyme fitness (log ratio)": -2.38}
{"variant": "A16C G52A", "polymerase ribozyme fitness (log ratio)": -1.81}
{"variant": "C15U C62A C86U A111C U129G", "polymerase ribozyme fitness (log ratio)": -4.97}
{"variant": "C15U G47U C49A C86A U106C", "polymerase ribozyme fitness (log ratio)": -2.3}
{"variant": "C15G A66G G69C C89U", "polymerase ribozyme fitness (log ratio)": -5.99}
{"variant": "C15U C34A G69C", "polymerase ribozyme fitness (log ratio)": -5.57}
{"variant": "C15G G48A U78G C97U A111U", "polymerase ribozyme fitness (log ratio)": -6.43}
{"variant": "A16G G47C C56U A74U A121G G128C", "polymerase ribozyme fitness (log ratio)": -3.74}
{"variant": "A16U G47U G60U U112G", "polymerase ribozyme fitness (log ratio)": -1.75}
{"variant": "G17A U116C G120U", "polymerase ribozyme fitness (log ratio)": -5.7}
{"variant": "G17C C20A G63U", "polymerase ribozyme fitness (log ratio)": -4.87}
{"variant": "G17A A75G C89A A90G", "polymerase ribozyme fitness (log ratio)": -3.23}
{"variant": "G17A C20A G61C A119U C124A", "polymerase ribozyme fitness (log ratio)": -5.19}
{"variant": "C15U C101A", "polymerase ribozyme fitness (log ratio)": -2.35}
{"variant": "C15U C101U", "polymerase ribozyme fitness (log ratio)": -1.84}
{"variant": "C15G C70G C86A G120A", "polymerase ribozyme fitness (log ratio)": -4.5}
{"variant": "G17A C86G", "polymerase ribozyme fitness (log ratio)": -4.48}
{"variant": "C15U C56G G61U A66G C73U C94G C97G C98A U112G A119C G135C", "polymerase ribozyme fitness (log ratio)": -5.66}
{"variant": "C15U A24G A41G C115U", "polymerase ribozyme fitness (log ratio)": -2.93}
{"variant": "G17A G48C", "polymerase ribozyme fitness (log ratio)": -4.15}
{"variant": "C15G C62A", "polymerase ribozyme fitness (log ratio)": -3.96}
{"variant": "G17U G71U", "polymerase ribozyme fitness (log ratio)": -2.1}
{"variant": "G17U G110C", "polymerase ribozyme fitness (log ratio)": -7.86}
{"variant": "C15G G107A", "polymerase ribozyme fitness (log ratio)": -5.32}
{"variant": "G17A A46C", "polymerase ribozyme fitness (log ratio)": -3.18}
{"variant": "A16C C72A", "polymerase ribozyme fitness (log ratio)": -3.3}
{"variant": "G17U C20U C49A C73G C115A", "polymerase ribozyme fitness (log ratio)": -1.32}
{"variant": "C15U G52U G61A C98U U125A U131A", "polymerase ribozyme fitness (log ratio)": -3.15}
{"variant": "A18C C40U G48A C56G A84C C114U", "polymerase ribozyme fitness (log ratio)": -5.13}
{"variant": "G17U G63A U81A G110C", "polymerase ribozyme fitness (log ratio)": -6.98}
{"variant": "C15U A41G G57C C62U U112A G122A G135A", "polymerase ribozyme fitness (log ratio)": -1.87}
{"variant": "C15U A41G", "polymerase ribozyme fitness (log ratio)": -1.83}
{"variant": "A16G U54C", "polymerase ribozyme fitness (log ratio)": -1.39}
{"variant": "A16G C73A A90C", "polymerase ribozyme fitness (log ratio)": -3.02}
{"variant": "G17A G61A C114G C124A", "polymerase ribozyme fitness (log ratio)": -3.95}
{"variant": "C15U G39U G52A", "polymerase ribozyme fitness (log ratio)": -3.14}
{"variant": "G17U G60C A121G", "polymerase ribozyme fitness (log ratio)": -0.0519}
{"variant": "C15U U132A", "polymerase ribozyme fitness (log ratio)": -0.984}
{"variant": "G17A G71U G122A", "polymerase ribozyme fitness (log ratio)": -4.15}
